Data published in paper PMC8792006, “Engineering the stambomycin modular polyketide synthase yields 37-membered mini-stambomycins” (Nature Communications, 2022).
Where a chain is given by its changes, count along the chain named.

B1: ^CDD8 (C-terminal docking domain of stambomycin PKS subunit Pks8) (domain or fragment)
chain: GPGSYGPAALLADLDRLDAALAGTGPGDETRSRVISRLHALLARHDTADGSGLVTAAGNLDAADDDNLFAFIDNELGA
B2: ^CDD4 helix swap (C-terminal docking domain of Pks4 with its docking α-helix exchanged for that of ^CDD8) (domain or fragment)
chain: GPGSYADRLLAELARLEADLTRMDGDEEDRTRLAARLRALADRCQGERTRRDDNLDAADDDNLFAFIDNELGA
B3: ^CDD4 wt (C-terminal docking domain of stambomycin PKS subunit Pks4) (domain or fragment)
chain: GPGSYADRLLAELARLEADLTRMDGDEEDRTRLAARLRALADRCQGERTRRDDNLDAASIEEVFDLLDTEFETP
B4: ^CDD4 SDM (C-terminal docking domain of Pks4 with 3 specificity-code residues mutated to match ^CDD8) (domain or fragment)
chain: B3 chain with E61D, L67I, F71L

Assays:
[1] = target: the molecule itself; assay: SEC-MALS; Superdex75 10/300, 20 °C, 0.5 mL min^-1, 20 mM HEPES, 100 mM NaCl, 0.5 mM TCEP, pH 7.5; each docking domain alone
[2] = target: T1, ^NDD9 Met (N-terminal docking domain of stambomycin PKS subunit Pks9, version with the Met start site) (Streptomyces ambofaciens ATCC23877); assay: ITC; ^CDD (700 μM) in the syringe titrated into the ^NDD in the cell (^NDD5 70 μM; ^NDD9 Met 80 μM; ^NDD9 Val 120 μM); 20 °C; buffer GF (20 mM HEPES, 100 mM NaCl, 0.5 mM TCEP, pH 7.5); one-site binding model; two independent titrations; settings: both partners purified
T1 chain: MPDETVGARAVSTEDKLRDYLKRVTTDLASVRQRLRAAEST

[3] = target: T2, ^NDD9 Val (N-terminal docking domain of stambomycin PKS subunit Pks9, version with the Val start site) (Streptomyces ambofaciens ATCC23877); assay: as above; settings: both partners purified
T2 chain: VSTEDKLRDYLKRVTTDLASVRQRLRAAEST

[4] = target: T3, ^NDD5 (N-terminal docking domain of stambomycin PKS subunit Pks5) (Streptomyces ambofaciens ATCC23877); assay: as above; settings: both partners purified
T3 chain: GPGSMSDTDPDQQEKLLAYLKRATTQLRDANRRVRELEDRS

Row | Binder | stoichiometry N [1] | Kd [2] [µM] | stoichiometry N [2] | Kd [3] [µM] | stoichiometry N [3] | Kd [4] [µM] | stoichiometry N [4]
1 | B1 | 2 | 33 ± 2 | 2 monomeric ^NDDs per homodimeric ^CDD | 22 ± 1 | 2 monomeric ^NDDs per homodimeric ^CDD |  | 
2 | B2 | 2 |  |  | 21 ± 0.3 |  |  | 
3 | B3 | 2 |  |  |  |  | 14.5 ± 0.9 | 2 monomeric ^NDDs per homodimeric ^CDD
4 | B4 | 2 |  |  |  |  |  | 
